Source: article PMC3248895

Target: polymerized nonmuscle actin (F-actin) (UniProt P60709)
Test: co-sedimentation

“GST-connecdenn 3 789–801 wild type (from UniProt Q8IV53 789-801) (peptide)” gave a Kd of 10.7 µM.
